The results in this text go back to article PMC6698835 (Antibodies, 2018).

Common to all, as to conditions: both partners purified
In assay [1] the target is T1, Shiga toxin 1 (Stx1) (Escherichia coli (STEC), strain not …, UniProt P08026;P69179).
T1 construct: source: bought: Tufts University School of Medicine; copies: 1 + 5
The assay can be described thus: SPR; […]; HBS-EP pH 7.4; 25 °C; 30 uL/min; […]; Langmuir 1:1 model; BIAcore T200; in duplicate.

The target in assay [2] is T1, Shiga toxin 1 (Stx1). The assay can be described thus: ELISA; […]; room temperature; in triplicate.
A further assay addresses Stx2 toxin (Escherichia coli (STEC), strain not …, UniProt P09385;P09386). The assay can be described thus: ELISA; […]; room temperature; in triplicate.

T1 sequence (P69179 whole entry, looked up, chain 1 of 2): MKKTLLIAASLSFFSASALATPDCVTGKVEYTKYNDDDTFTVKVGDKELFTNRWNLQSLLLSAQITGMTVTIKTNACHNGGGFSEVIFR
T1 sequence (P08026 whole entry, looked up, chain 2 of 2): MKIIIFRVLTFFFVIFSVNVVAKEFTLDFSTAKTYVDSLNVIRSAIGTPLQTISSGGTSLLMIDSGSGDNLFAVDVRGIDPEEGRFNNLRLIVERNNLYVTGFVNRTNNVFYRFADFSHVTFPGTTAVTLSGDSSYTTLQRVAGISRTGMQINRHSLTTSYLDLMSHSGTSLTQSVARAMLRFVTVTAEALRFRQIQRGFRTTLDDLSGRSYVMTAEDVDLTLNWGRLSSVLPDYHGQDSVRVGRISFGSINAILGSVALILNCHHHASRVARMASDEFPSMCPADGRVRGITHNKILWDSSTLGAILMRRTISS
Sequence of Stx2 toxin (P09386 whole entry, looked up, chain 1 of 2): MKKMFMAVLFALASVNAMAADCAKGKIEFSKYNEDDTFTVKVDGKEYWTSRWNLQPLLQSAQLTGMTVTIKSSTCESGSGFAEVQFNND
Sequence of Stx2 toxin (P09385 whole entry, looked up, chain 2 of 2): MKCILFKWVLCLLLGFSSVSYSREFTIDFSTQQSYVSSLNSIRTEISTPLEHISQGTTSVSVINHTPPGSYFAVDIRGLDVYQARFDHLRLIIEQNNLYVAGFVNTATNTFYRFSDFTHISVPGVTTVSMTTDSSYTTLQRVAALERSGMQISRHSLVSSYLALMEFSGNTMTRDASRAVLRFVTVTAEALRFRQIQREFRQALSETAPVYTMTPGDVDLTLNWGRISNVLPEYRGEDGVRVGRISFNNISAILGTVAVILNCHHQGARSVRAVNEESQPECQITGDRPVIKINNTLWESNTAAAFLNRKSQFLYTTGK

B1: scFvStx1 (scFv, V domains shown)
VH: EVQLQQSGPELVKPGTSVKMSCKASGYTFTDYFIHWVKQSHGKSLEWIGYIYPKNDGNDYNQKFKGKATLTVDKSSSTGYMELRSLTSEDSAVYYCARSRGYYGALDYWGQGTSVTVSR
VL: DLQLTQSPATLSVNPGDSVSLSCRASQSIRNDLHWYQQKSHESPRLLIKSVSQSISGIPSRFSGSGSGTDFTLSINSVETEDFGMYFCQQSYSWPLTFGAGTK
notes: also called scFvStx1(II); new scFvStx1; source: E. coli BL21 (DE3) pLysS, periplasmic expression, purified (IMAC)
Regarding B1, in the assay with Shiga toxin 1 (Stx1) [1], the Kd is 226 nM. The EC50 in the assay with Shiga toxin 1 (Stx1) [2] was found to be 600 nM. Moreover, in the assay with Stx2 toxin, the binding result is recorded as “binds”.
